In PMC4978918:

Experiments:
Assay in all cases: co-IP; anti-V5 IP of Scc4-3V5 or scc4-RID-3V5 from yeast extracts, cells at midlog phase in YPD at 23°, IPH50 buffer (50 mM Tris pH 8.0, 50 mM NaCl, 5 mM EDTA, 0.5% NP-40), 4°; blot with anti-Myc (Scc2) or anti-HA (Smc1)
[1] = target: scc4-S505ins-3V5 (S. cerevisiae) (UniProt P40090)
[2] = target: scc4-V485ins-3V5 (S. cerevisiae) (UniProt P40090)
[3] = target: scc4-L305ins-3V5 (S. cerevisiae) (UniProt P40090)
[4] = target: scc4-L490ins-3V5 (S. cerevisiae) (UniProt P40090)

Measured: co-precipitation, percent of the wild-type level

B1: Scc2-12Myc (natural protein)
chain: MSYPGKDKNIPGRIIEALEDLPLSYLVPKDGLAALVNAPMRVSLPFDKTIFTSADDGRDVNINVLGTANSTTSSIKNEAEKERLVFKRPSNFTSSANSVDYVPTNFLEGLSPLAQSVLSTHKGLNDSINIEKKSEIVSRPEAKHKLESVTSNAGNLSFNDNSSNKKTKTSTGVTMTQANLAEQYLNDLKNILDIVGFDQNSAEIGNIEYWLQLPNKKFVLTTNCLTKLQMTIKNITDNPQLSNSIEITWLLRLLDVMVCNIKFSKSSLKMGLDDSMLRYIALLSTIVLFNIFLLGKNDSNLHRESYIMEPVNFLSDLIESLKILTIEYGSLKIEFDTFQEALELLPKYIRNGPFLDDNVTAKLVYIFSDLLMNNDIEATTNIQFQSFWDNVKRISSDILVSLFGSFDQQRGFIIEELLSHIEKLPTKRIQKKLRKVGNQNIYITDFTFTLMSMLENINCYSFCNQMKDIAPENIDLLKNEYKKQEEFLFNIVEHINDTILERFFKNPSALRYVIDNFVQDLLLLISSPQWPVTEKILSSLLKRLLSVYSPSMQVSANIETICLQLIGNIGSTIFDIKCSTRDHEDNNLIKMINYPETLPHFFKSFEECIAYNETIKCRRSATRFLWNLRLGTILILEEYTKDAKEQIITVDNELKKILEQIKDGGLGPELENREADFSTIKLDYFSILHAFELLNLYDPYLKLILSLLAKDKIKLRSTAIKCLSMLASKDKVILSNPMVKETIHRRLNDSSASVKDAILDLVSINSSYFEFYQQINNNYNDDSIMVRKHVLRINEKMYDETNDIVTKVYVIARILMKIEDEEDNIIDMARLILLNRWILKVHEVLDQPEKLKEISSSVLLVMSRVAIMNEKCSQLFDLFLNFYLLNKEAHSKEAYDKITHVLTILTDFLVQKIVELNSDDTNEKNSIVDKQNFLNLLAKFADSTVSFLTKDHITALYPYMVSDEKSDFHYYILQVFRCTFEKLANFKQKFLYDLETTLLSRLPKMNVREIDEAMPLIWSVATHRHDTARVAKACSSCLSHLHPYINKANNEEAAIVVDGKLQRLIYLSTGFARFCFPKPSNDKIAFLQEGETLYEHITKCLLVLSKDKITHVIRRVAVKNLTKLCGNHPKLFNSRHVLHLLDKEFQSDQLDIKLVILESLYDLFLLEERKSVRNTGVNSTLSSNSILKKKLLKTNRVEFANDGVCSALATRFLDNILQLCLLRDLKNSLVAIRLLKLILKFGYTNPSHSIPTVIALFASTSQYIRHVAYELLEDLFEKYETLVFSSLSRGVTKAIHYSIHTDEKYYYKHDHFLSLLEKLCGTGKKNGPKFFKVLKRIMQSYLDDITDLTSTNSSVQKSIFVLCTNISNITFVSQYDLVSLLKTIDLTTDRLKEVIMDEIGDNVSSLSVSEEKLSGIILIQLSLQDLGTYLLHLYGLRDDVLLLDIVEESELKNKQLPAKKPDISKFSAQLENIEQYSSNGKLLTYFRKHVKDT
50%: all assays above
